# From patent US20240301076A1 (CEPHALON, published 2024)
# Where a chain is given by its changes, count along the chain named. In names and notes the source's numbering stands.
# T1: human CXCR2 (human, UniProt P25025 1-360)
# T1 construct: also called CXC chemokine receptor 2; hCXCR2
# T1 sequence: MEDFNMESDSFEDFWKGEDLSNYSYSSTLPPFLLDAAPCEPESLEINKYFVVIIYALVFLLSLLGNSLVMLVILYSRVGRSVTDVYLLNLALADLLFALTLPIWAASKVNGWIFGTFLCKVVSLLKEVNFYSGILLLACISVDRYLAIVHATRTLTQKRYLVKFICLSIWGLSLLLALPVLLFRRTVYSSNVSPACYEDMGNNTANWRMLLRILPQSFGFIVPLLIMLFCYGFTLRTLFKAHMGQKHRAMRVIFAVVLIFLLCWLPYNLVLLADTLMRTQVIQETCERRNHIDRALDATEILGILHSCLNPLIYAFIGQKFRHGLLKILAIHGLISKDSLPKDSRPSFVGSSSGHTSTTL
# B1: BKO-4A8 combinatorial variant 1b (antibody, human IgG4 S228P, lambda, V domains shown)
# VH: EVQLLESGGGLVQPGGSLRLSCAASGFTFSSSTQSWVRQAPGKGLEWVSAISGRGRSTYYADSVKGRFTISRDNSRNTLYLQMNSLRAEDTAVYYCAIQMGYWGQGILVTVSS
# VL: QSALTQPPSASGSPGQSVTISCIGTSSDVGGYNYVSWYQQHPDKAPKLMIYEVSKRPSGVPDRFSGSKSGNTASLTVSGLQAEDEADYYCSSYAGSNNFGVFGGGTKLTVLG
# notes: IgG4 S228P, lambda
# B2: BKO-4A8 combinatorial variant 7c (antibody, human IgG4 S228P, lambda, V domains shown)
# VH: B1 VH with A40P, I98K, M100K
# VL: B1 VL with D43G
# notes: IgG4 S228P, lambda
# B3: BKO-4A8 combinatorial variant 10b (antibody, human IgG4 S228P, lambda, V domains shown)
# VH: B1 VH with Q34M, S57N, I98K, M100K
# VL: B1 VL
# notes: IgG4 S228P, lambda
# B4: BKO-4A8 combinatorial variant 5b (antibody, human IgG4 S228P, lambda, V domains shown)
# VH: B1 VH with A40P, R76K, M100K
# VL: B1 VL
# notes: IgG4 S228P, lambda
# B5: BKO-4A8 combinatorial variant 4b (antibody, human IgG4 S228P, lambda, V domains shown)
# VH: B1 VH with A40P, M100K
# VL: B1 VL
# notes: IgG4 S228P, lambda
# B6: BKO-4A8 combinatorial variant 3c (antibody, human IgG4 S228P, lambda, V domains shown)
# VH: B1 VH with A40P, R76K
# VL: B1 VL with D43G
# notes: IgG4 S228P, lambda
# B7: BKO-4A8 combinatorial variant 1c (antibody, human IgG4 S228P, lambda, V domains shown)
# VH: B1 VH
# VL: B1 VL with D43G
# notes: IgG4 S228P, lambda
# B8: BKO-4A8 combinatorial variant 7b (antibody, human IgG4 S228P, lambda, V domains shown)
# VH: B1 VH with A40P, I98K, M100K
# VL: B1 VL
# notes: IgG4 S228P, lambda
# B9: BKO-4A8 combinatorial variant 4c (antibody, human IgG4 S228P, lambda, V domains shown)
# VH: B1 VH with A40P, M100K
# VL: B1 VL with D43G
# notes: IgG4 S228P, lambda
# B10: BKO-4A8 combinatorial variant 2c (antibody, human IgG4 S228P, lambda, V domains shown)
# VH: B1 VH with A40P
# VL: B1 VL with D43G
# notes: IgG4 S228P, lambda
# B11: BKO-4A8 combinatorial variant 3b (antibody, human IgG4 S228P, lambda, V domains shown)
# VH: B1 VH with A40P, R76K
# VL: B1 VL
# notes: IgG4 S228P, lambda
# B12: BKO-4A8 combinatorial variant 9b (antibody, human IgG4 S228P, lambda, V domains shown)
# VH: B1 VH with R76K, M100K
# VL: B1 VL
# notes: IgG4 S228P, lambda
# B13: BKO-4A8 combinatorial variant 9c (antibody, human IgG4 S228P, lambda, V domains shown)
# VH: B1 VH with R76K, M100K
# VL: B1 VL with D43G
# notes: IgG4 S228P, lambda
# B14: BKO-4A8 combinatorial variant 10c (antibody, human IgG4 S228P, lambda, V domains shown)
# VH: B1 VH with Q34M, S57N, I98K, M100K
# VL: B1 VL with D43G
# notes: IgG4 S228P, lambda
# B15: BKO-4A8 combinatorial variant 5c (antibody, human IgG4 S228P, lambda, V domains shown)
# VH: B1 VH with A40P, R76K, M100K
# VL: B1 VL with D43G
# notes: IgG4 S228P, lambda
# B16: BKO-4A8 combinatorial variant 6c (antibody, human IgG4 S228P, lambda, V domains shown)
# VH: B1 VH with A40P, R76K, I98K, M100K
# VL: B1 VL with D43G
# notes: IgG4 S228P, lambda
# B17: BKO-4A8 combinatorial variant 6b (antibody, human IgG4 S228P, lambda, V domains shown)
# VH: B1 VH with A40P, R76K, I98K, M100K
# VL: B1 VL
# notes: IgG4 S228P, lambda
# B18: BKO-4A8 combinatorial variant 2b (antibody, human IgG4 S228P, lambda, V domains shown)
# VH: B1 VH with A40P
# VL: B1 VL
# notes: IgG4 S228P, lambda
# B19: BKO-4A8 variant VL N95aL (antibody, human IgG4 S228P, lambda, V domains shown)
# VH: B1 VH with Q34M, S57N
# VL: B1 VL with S54N, S96N, N98L
# notes: IgG4 S228P, lambda; parental heavy chain; also called 4A8 VL N95aL
# B20: BKO-4A8 variant VL N95aK (antibody, human IgG4 S228P, lambda, V domains shown)
# VH: B1 VH with Q34M, S57N
# VL: B1 VL with S54N, S96N, N98K
# notes: IgG4 S228P, lambda; parental heavy chain; also called 4A8 VL N95aK
# B21: BKO-4A8 variant VL V97A (antibody, human IgG4 S228P, lambda, V domains shown)
# VH: B1 VH with Q34M, S57N
# VL: B1 VL with S54N, S96N, V101A
# notes: IgG4 S228P, lambda; parental heavy chain; also called 4A8 VL V97A
# B22: BKO-4A8 variant VL N94L (antibody, human IgG4 S228P, lambda, V domains shown)
# VH: B1 VH with Q34M, S57N
# VL: B1 VL with S54N, S96L
# notes: IgG4 S228P, lambda; parental heavy chain; also called 4A8 VL N94L
# B23: BKO-4A8 variant VL N95aD (antibody, human IgG4 S228P, lambda, V domains shown)
# VH: B1 VH with Q34M, S57N
# VL: B1 VL with S54N, S96N, N98D
# notes: IgG4 S228P, lambda; parental heavy chain; also called 4A8 VL N95aD
# B24: BKO-4A8 variant VL N95aH (antibody, human IgG4 S228P, lambda, V domains shown)
# VH: B1 VH with Q34M, S57N
# VL: B1 VL with S54N, S96N, N98H
# notes: IgG4 S228P, lambda; parental heavy chain; also called 4A8 VL N95aH
# B25: BKO-4A8 variant VL N95aY (antibody, human IgG4 S228P, lambda, V domains shown)
# VH: B1 VH with Q34M, S57N
# VL: B1 VL with S54N, S96N, N98Y
# notes: IgG4 S228P, lambda; parental heavy chain; also called 4A8 VL N95aY
# B26: BKO-4A8 variant VL N94W (antibody, human IgG4 S228P, lambda, V domains shown)
# VH: B1 VH with Q34M, S57N
# VL: B1 VL with S54N, S96W
# notes: IgG4 S228P, lambda; parental heavy chain; also called 4A8 VL N94W
# B27: BKO-4A8 variant VL Y91A (antibody, human IgG4 S228P, lambda, V domains shown)
# VH: B1 VH with Q34M, S57N
# VL: B1 VL with S54N, Y93A, S96N
# notes: IgG4 S228P, lambda; parental heavy chain; also called 4A8 VL Y91A
# B28: BKO-4A8 variant VL K53D (antibody, human IgG4 S228P, lambda, V domains shown)
# VH: B1 VH with Q34M, S57N
# VL: B1 VL with S54N, K55D, S96N
# notes: IgG4 S228P, lambda; parental heavy chain; also called 4A8 VL K53D
# B29: BKO-4A8 variant VL R54Q (antibody, human IgG4 S228P, lambda, V domains shown)
# VH: B1 VH with Q34M, S57N
# VL: B1 VL with S54N, R56Q, S96N
# notes: IgG4 S228P, lambda; parental heavy chain; also called 4A8 VL R54Q
# B30: BKO-4A8 variant VL N94A (antibody, human IgG4 S228P, lambda, V domains shown)
# VH: B1 VH with Q34M, S57N
# VL: B1 VL with S54N, S96A
# notes: IgG4 S228P, lambda; parental heavy chain; also called 4A8 VL N94A
# B31: BKO-4A8 variant VL K53H (antibody, human IgG4 S228P, lambda, V domains shown)
# VH: B1 VH with Q34M, S57N
# VL: B1 VL with S54N, K55H, S96N
# notes: IgG4 S228P, lambda; parental heavy chain; also called 4A8 VL K53H
# B32: BKO-4A8 variant VL N52D (antibody, human IgG4 S228P, lambda, V domains shown)
# VH: B1 VH with Q34M, S57N
# VL: B1 VL with S54D, S96N
# notes: IgG4 S228P, lambda; parental heavy chain; also called 4A8 VL N52D
# B33: BKO-4A8 variant VL V97K (antibody, human IgG4 S228P, lambda, V domains shown)
# VH: B1 VH with Q34M, S57N
# VL: B1 VL with S54N, S96N, V101K
# notes: IgG4 S228P, lambda; parental heavy chain; also called 4A8 VL V97K
# Target: T1, human CXCR2
# Assay: flow cytometry, CXCR2-transfected Expi293F cells
# Method: (§1) Harvested cells were resuspended in FACS buffer (1×PBS+0.5% (w/v) bovine serum albumin (BSA)+2 mM EDTA pH 7.2). Approximately 2×10⁵ cells were added per well in a 96-well round-bottomed plate. Cells were pelleted by centrifugation at 400 g for 5 mins at 4° C. and supernatants discarded. 25 μL of each test antibody or control antibody was added to the cells and incubated for 30 minutes at 4° C. Cells were washed twice in 100 μL FACS buffer followed by centrifugation at 400 g for 5 mins at 4° C.
# (§2) For detection, 50 μL of secondary antibody (Table 2) was added to relevant samples. Commercially available antibodies that bound to transfected CXCR family members were used as positive controls to ensure that the cells were expressing the receptors. Cells were washed twice in 200 μL of FACS buffer followed by centrifugation at 400 g for 5 mins at 4° C. Before sample acquisition, cells were resuspended in 100 μL of FACS buffer. Samples were acquired using the high throughput sampler on a FACSCanto™ II cytometer (Beckton-Dickinson).
# Each heavy chain was co-expressed with each light chain to produce a sequence optimized antibody variant. Antibodies were purified and tested for CXCR2 binding activity as described in General Methods.
Binder,EC50,Fold Improvement over 4A8 WT
B1,300 pM,1.33 fold
B2,1000 pM,0.5 fold
B3,300 pM,1.67 fold
B4,400 pM,1.25 fold
B5,400 pM,1.25 fold
B6,200 pM,2 fold
B7,300 pM,1.33 fold
B8,800 pM,0.63 fold
B9,400 pM,1.25 fold
B10,300 pM,1.67 fold
B11,100 pM,4 fold
B12,300 pM,3 fold
B13,6400 pM,0.14 fold
B14,500 pM,1 fold
B15,400 pM,1.25 fold
B16,900 pM,0.44 fold
B17,400 pM,1 fold
B18,400 pM,1.25 fold

# Target: T1, human CXCR2
# Assay: flow cytometry, CXCR2-transfected Expi293F cells
# Remark: another data set of the same source
# Method: as §1, §2
# Each variant heavy chain was co-expressed with the parental light chain and vice versa.
row,Binder,Fold change in binding relative to BKO-4A8
1,B19,1.7 fold
2,B20,1 fold
3,B21,1.7 fold
4,B22,0.88 fold
5,B23,2.3 fold
6,B24,1.3 fold
7,B25,1.7 fold
8,B26,0.63 fold
9,B27,1.7 fold
10,B28,1.4 fold
11,B29,1.6 fold
12,B30,1 fold
13,B31,1.4 fold
14,B32,1.7 fold
15,B33,1 fold
